Results as given in the supplement of paper PMC10724198.
± gives the standard deviation of the averaged measurements.
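Further: PSI is a weighted mean of sequencing reads over stability bins, variants kept only with over 10 reads, mCherry proximal and sfGFP distal, peptide attached via GGGS linker.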

Each sequence was assayed on Saccharomyces cerevisiae (assay: protein stability index of tFT-peptide fusion (C-terminal peptide) (PSI (0-1 scale)); higher = more stable (slower turnover)). Conditions: genetic background: wild type; temperature: 30 C.
TLTHKSVRLVVK gave a protein stability index of 0.57119 ± 0.00034.
Sequence TLVNPFYRRFNL has a protein stability index of 0.739 ± 0.03.
For TLVSCRLVPSSR, the protein stability index was 0.671 ± 0.056.
With TMFTISGWPLFG the protein stability index was 0.633 ± 0.044.
TMTGSGRGEKWE showed a protein stability index of 0.733 ± 0.1.
In the case of TNGPSVWYFLVL, the protein stability index is reported as 0.575 ± 0.052.
With TNNKKTRNHTSK the protein stability index was 0.704 ± 0.03.
TNSGLGTGRRSA showed a protein stability index of 0.768 ± 0.02.
Work on TNSPTVSGCLQQ yielded a protein stability index of 0.716 ± 0.07.
Sequence TNSYRTSVRGER has a protein stability index of 0.795 ± 0.013.
Sequence TNTPVYRQAPQM has a protein stability index of 0.657 ± 0.02.
TPFLRGTDKTTP was tested, and the protein stability index was 0.662 ± 0.068.
TPLSDQLVPFGC showed a protein stability index of 0.708 ± 0.082.
TPPALPPPSPPA showed a protein stability index of 0.68516 ± 0.00038.
In the case of TPPATFCVPPPH, the protein stability index is reported as 0.719 ± 0.053.
With TPPLARPSPTAL the protein stability index was 0.534 ± 0.12.
TPPPLPSPAPRP gave a protein stability index of 0.715 ± 0.062.
For TPPPSPPQPLPP, the protein stability index was 0.642 ± 0.043.
For TPPVPPHPRSLL, the protein stability index was 0.774 ± 0.11.
Work on TPQLSYYKGNNL yielded a protein stability index of 0.639 ± 0.013.
In the case of TPRPPPLPPRPP, the protein stability index is reported as 0.603 ± 0.029.
With TPRPPQPGLSRT the protein stability index was 0.67 ± 0.027.
Work on TPRRPPATPAPC yielded a protein stability index of 0.653 ± 0.025.
TPSSPSARHPPP was tested, and the protein stability index was 0.715 ± 0.036.
Work on TPTDPLSLYAFP yielded a protein stability index of 0.69 ± 0.013.
For TPTSLRLSSLSP, the protein stability index was 0.648 ± 0.036.
TPVLATAPQGQS was tested, and the protein stability index was 0.71 ± 0.063.
TPWQTREVTRAR showed a protein stability index of 0.691 ± 0.057.
TQGPTAPADPCS gave a protein stability index of 0.67049 ± 0.00033.
TQSEHRTIPKSG gave a protein stability index of 0.663 ± 0.0089.
With TQTLLQRTYREG the protein stability index was 0.722 ± 0.09.
Work on TRCLPPPVPPSL yielded a protein stability index of 0.729 ± 0.014.
With TRDVLWHCWVLS the protein stability index was 0.514 ± 0.08.
Sequence TRGAPHHSSGRG has a protein stability index of 0.693 ± 0.033.
TRLLAWGVVGLF gave a protein stability index of 0.633 ± 0.086.
In the case of TRPHASPPPPPP, the protein stability index is reported as 0.695 ± 0.024.
TRPIGSPPSPAK gave a protein stability index of 0.702 ± 0.017.
TRRPTPPSRASL gave a protein stability index of 0.718 ± 0.049.
TRSLPPELTPRR gave a protein stability index of 0.705 ± 0.021.
TRSTKIVVEGSG was tested, and the protein stability index was 0.736 ± 0.085.
In the case of TRVAYINRGETR, the protein stability index is reported as 0.78 ± 0.2.
Sequence TRVKRQFRRGGI has a protein stability index of 0.686 ± 0.011.
Work on TRYRQKRMSITT yielded a protein stability index of 0.581 ± 0.014.
Sequence TSASLFPLGPFR has a protein stability index of 0.666 ± 0.02.
For TSCIVVRGGRNG, the protein stability index was 0.6453 ± 0.0041.
For TSDVGWVPAGSE, the protein stability index was 0.656 ± 0.043.
TSETLLTLSTLT was tested, and the protein stability index was 0.669 ± 0.04.
TSHMKASANDTL was tested, and the protein stability index was 0.687 ± 0.11.
Sequence TSLFVAGRVWRS has a protein stability index of 0.703 ± 0.014.
TSLGSFLCGMCR showed a protein stability index of 0.6506 ± 0.0046.
TSLYGRDEETKV was tested, and the protein stability index was 0.599 ± 0.077.
Sequence TSNRLDVDFPLS has a protein stability index of 0.699 ± 0.0087.
In the case of TSPAPYPRPPPT, the protein stability index is reported as 0.723 ± 0.036.
With TSPRILLPLNAT the protein stability index was 0.694 ± 0.014.
Sequence TSRKNRVKASVP has a protein stability index of 0.739 ± 0.039.
TSRSPLVAPNPS was tested, and the protein stability index was 0.738 ± 0.083.
TSSTPNALARIP gave a protein stability index of 0.71 ± 0.16.
With TSWLHTCMKCSL the protein stability index was 0.728 ± 0.017.
In the case of TSYRNNKAKNQS, the protein stability index is reported as 0.756 ± 0.01.
For TTGKEAQYEARK, the protein stability index was 0.664 ± 0.071.
TTPYVRTSPRKP showed a protein stability index of 0.654 ± 0.0091.
For TTQTYAPLTPHR, the protein stability index was 0.64 ± 0.097.
In the case of TTSKQHRPKQMN, the protein stability index is reported as 0.708 ± 0.23.
TVAVCPKIDYSV gave a protein stability index of 0.667 ± 0.0085.
Sequence TVGKGCGGAEGG has a protein stability index of 0.6439 ± 0.0029.
Sequence TVGRILEVSRRG has a protein stability index of 0.66 ± 0.025.
In the case of TVILQRNPKIIV, the protein stability index is reported as 0.652 ± 0.058.
Work on TVLHLCMMTFLI yielded a protein stability index of 0.576 ± 0.0084.
TVLPAPYRSLYR was tested, and the protein stability index was 0.714 ± 0.1.
For TVNIIREEKAGG, the protein stability index was 0.68 ± 0.031.
For TVVTIGAHIGPR, the protein stability index was 0.78 ± 0.048.
For TVWCRLKGEGRS, the protein stability index was 0.737 ± 0.084.
TWARRAHALRCR gave a protein stability index of 0.493 ± 0.015.
For TWIRIEQKTEVR, the protein stability index was 0.631 ± 0.017.
For TWQWGAFNRIKG, the protein stability index was 0.68 ± 0.13.
TWSLLHDTQTWD gave a protein stability index of 0.78 ± 0.068.
In the case of TWSSLVSAVRRN, the protein stability index is reported as 0.701 ± 0.079.
For TYACRQEWRESR, the protein stability index was 0.731 ± 0.041.
For TYFIVGGCGFFG, the protein stability index was 0.643 ± 0.06.
TYRLSHFFKILP was tested, and the protein stability index was 0.566 ± 0.013.
TYSPPSPTPPAR was tested, and the protein stability index was 0.656 ± 0.055.
Sequence TYSTLHILLSSS has a protein stability index of 0.602 ± 0.014.
TYTCRQVSCNAL gave a protein stability index of 0.681 ± 0.012.
VAAFGGGGTNGV showed a protein stability index of 0.665 ± 0.075.
Work on VADGEAGPLFKI yielded a protein stability index of 0.644 ± 0.069.
With VAFLSSADLLPP the protein stability index was 0.676 ± 0.056.
In the case of VAGAVGSAQFER, the protein stability index is reported as 0.649 ± 0.13.
For VAGFYCQKWFSI, the protein stability index was 0.657 ± 0.08.
VAGGGVAMVGSA was tested, and the protein stability index was 0.619 ± 0.069.
With VAGLARVSLHGF the protein stability index was 0.6746 ± 0.0052.
For VAGWGAGREAAY, the protein stability index was 0.657 ± 0.026.
VALAPLRDVPSG showed a protein stability index of 0.681 ± 0.043.
In the case of VALLLGSRFDFT, the protein stability index is reported as 0.6627 ± 0.0023.
Work on VANRFRSILVRR yielded a protein stability index of 0.599 ± 0.023.
VAPPRLSHGAPY showed a protein stability index of 0.545 ± 0.061.
Work on VASKVNLPVWFW yielded a protein stability index of 0.702 ± 0.021.
VAVGIEGGGWGV showed a protein stability index of 0.764 ± 0.032.
VAVRGGCGDWGR showed a protein stability index of 0.689 ± 0.021.
Sequence VCCAQVCICCLR has a protein stability index of 0.58 ± 0.017.
Sequence VCFSCLFHESCL has a protein stability index of 0.726 ± 0.042.
VCFSPVARRDVY showed a protein stability index of 0.771 ± 0.049.
In the case of VCFVGGGGSCRD, the protein stability index is reported as 0.635 ± 0.068.
Sequence VCGLGGGQWQGV has a protein stability index of 0.729 ± 0.028.
VCGNRLSATAIT was tested, and the protein stability index was 0.684 ± 0.084.
Work on VCGQRLKDVGVG yielded a protein stability index of 0.499 ± 0.037.
VCHYKVSFSCLL was tested, and the protein stability index was 0.64 ± 0.044.
VCIGGGGVVLGL showed a protein stability index of 0.645 ± 0.04.
VCLATPPSTVTP showed a protein stability index of 0.619 ± 0.065.
VCLGRSEETLSS showed a protein stability index of 0.608 ± 0.15.
For VCLRRYGVMADV, the protein stability index was 0.628 ± 0.015.
With VCPGMLVYGRGI the protein stability index was 0.744 ± 0.092.
In the case of VCPILMARHCVE, the protein stability index is reported as 0.691 ± 0.057.
VCPSPSTPPGLF gave a protein stability index of 0.695 ± 0.019.
VCRSSGSFDLGI gave a protein stability index of 0.774 ± 0.064.
In the case of VCSFLSVDASPP, the protein stability index is reported as 0.699 ± 0.018.
For VCTLLWLLSLVS, the protein stability index was 0.573 ± 0.017.
Sequence VDEREKGSKQGK has a protein stability index of 0.689 ± 0.031.
VDTGMAAGLTFG was tested, and the protein stability index was 0.685 ± 0.034.
Sequence VDVHWSVLCPLG has a protein stability index of 0.851 ± 0.098.
VDVSGVCEFVLG showed a protein stability index of 0.706 ± 0.1.
In the case of VDWLCGGLGGVR, the protein stability index is reported as 0.742 ± 0.11.
With VDYARECALIGG the protein stability index was 0.782 ± 0.11.
For VEARKKTLNTGP, the protein stability index was 0.713 ± 0.033.
In the case of VEAVSLVFLYGV, the protein stability index is reported as 0.552 ± 0.012.
VEGSRDSLGCMD gave a protein stability index of 0.679 ± 0.03.
In the case of VEKQFSVWSFRG, the protein stability index is reported as 0.68 ± 0.031.
VELALPRGSTVV showed a protein stability index of 0.6596 ± 0.005.
VEMVVEFKFGTS showed a protein stability index of 0.703 ± 0.18.
VFCFRFLSFCPW showed a protein stability index of 0.542 ± 0.026.
Work on VFCPSPGPLAFA yielded a protein stability index of 0.673 ± 0.072.
VFCVFACLCIVF was tested, and the protein stability index was 0.522 ± 0.091.
Work on VFFLSYGPFLAM yielded a protein stability index of 0.5963 ± 0.0038.
With VFGGAGVGGDCG the protein stability index was 0.669 ± 0.012.
Sequence VFGKGRWDCFLI has a protein stability index of 0.727 ± 0.073.
VFGLVGWCAGDC was tested, and the protein stability index was 0.715 ± 0.094.
Work on VFGSGLRATGAV yielded a protein stability index of 0.635 ± 0.086.
In the case of VFKNRWLGGEKV, the protein stability index is reported as 0.69 ± 0.012.
Sequence VFLLCSLPTFWR has a protein stability index of 0.662 ± 0.062.
Work on VFLLSPLLVPRD yielded a protein stability index of 0.647 ± 0.11.
VFLVESFSPPNA gave a protein stability index of 0.701 ± 0.029.
For VFPLWLRRPFPF, the protein stability index was 0.695 ± 0.041.
In the case of VFTALALISYMQ, the protein stability index is reported as 0.5917 ± 0.0022.
Work on VFVGLFCVLGRV yielded a protein stability index of 0.523 ± 0.0079.
VFVRVVGDLRWE was tested, and the protein stability index was 0.578 ± 0.045.
VGAGAGGGGWVL showed a protein stability index of 0.782 ± 0.017.
Sequence VGAGGLWCGGGY has a protein stability index of 0.83 ± 0.031.
VGDCVVRGLWLS showed a protein stability index of 0.639 ± 0.03.
VGERGGIGARSG gave a protein stability index of 0.673 ± 0.021.
Work on VGFGTGGAVGVE yielded a protein stability index of 0.687 ± 0.041.
VGFPLVSSPLRL showed a protein stability index of 0.566 ± 0.059.
Sequence VGGAPLVSACCI has a protein stability index of 0.596 ± 0.022.
VGGEWGLGVRPR gave a protein stability index of 0.703 ± 0.014.
VGGGGLSGGAER gave a protein stability index of 0.678 ± 0.0093.
VGGGGRRGKVWG showed a protein stability index of 0.649 ± 0.035.
Sequence VGGIGGWFCRGR has a protein stability index of 0.73 ± 0.13.
VGGKSVVRAESS gave a protein stability index of 0.645 ± 0.013.
Work on VGGLGRGTGSGP yielded a protein stability index of 0.683 ± 0.096.
Work on VGGTSWGIEKSS yielded a protein stability index of 0.649 ± 0.052.
VGGVGEWCLVRL was tested, and the protein stability index was 0.6746 ± 0.0046.
With VGGVVGVGSVGV the protein stability index was 0.775 ± 0.14.
